One molecule from article PMC11408749, “Molecular mechanisms for DNA methylation defects induced by ICF syndrome‐linked mutations in DNMT3B” can be followed below.

Common to all, as to assay: fluorescence polarization; FP: 10 nM DNA, 20 mM Tris-HCl pH 8.0, 50 mM NaCl, 5% glycerol, 1 mM TCEP, 30 min at 25 C
Series [1] concerns the target DNMT3BΔ214 WT;DNMT3L MTase-like domain (human;human, UniProt Q9UBC3;Q9UJW3 215-853;179-379, |). As to conditions: protein: recombinant;recombinant; tags: tag (if any) removed by TEV;6xHis removed by TEV; chain copies: 2;2; label: 3'-FAM.
The target of series [2] is DNMT3BΔ570 R823G;DNMT3L MTase-like domain (human;human, UniProt Q9UBC3;Q9UJW3 571-853;179-379, R823G|). As to conditions: protein: recombinant;recombinant; tags: 6xHis-SUMO removed by TEV;6xHis removed by TEV; chain copies: 2;2; label: 3'-FAM.
DNMT3BΔ570 R823G;DNMT3L MTase-like domain, sequence (Q9UJW3 179-379, chain 2 of 2, other chains not shown): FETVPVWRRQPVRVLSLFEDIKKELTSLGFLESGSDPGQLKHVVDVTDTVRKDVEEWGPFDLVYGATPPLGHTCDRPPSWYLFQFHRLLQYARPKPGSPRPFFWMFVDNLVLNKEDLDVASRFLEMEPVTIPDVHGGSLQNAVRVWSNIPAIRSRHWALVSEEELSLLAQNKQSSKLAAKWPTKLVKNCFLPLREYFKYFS
The target in series [3] is DNMT3BΔ214 V818M;DNMT3L MTase-like domain (human;human, UniProt Q9UBC3;Q9UJW3 215-853;179-379, V818M|). As to conditions: protein: recombinant;recombinant; tags: tag (if any) removed by TEV;6xHis removed by TEV; chain copies: 2;2; label: 3'-FAM.
DNMT3BΔ214 V818M;DNMT3L MTase-like domain, sequence (Q9UJW3 179-379, chain 2 of 2, other chains not shown): as above
The target in series [4] is DNMT3BΔ214 R823G;DNMT3L MTase-like domain (human;human, UniProt Q9UBC3;Q9UJW3 215-853;179-379, R823G|). As to conditions: protein: recombinant;recombinant; tags: tag (if any) removed by TEV;6xHis removed by TEV; chain copies: 2;2; label: 3'-FAM.
DNMT3BΔ214 R823G;DNMT3L MTase-like domain, sequence (Q9UJW3 179-379, chain 2 of 2, other chains not shown): as above
In series [5] the target is DNMT3BΔ214 D817G;DNMT3L MTase-like domain (human;human, UniProt Q9UBC3;Q9UJW3 215-853;179-379, D817G|). As to conditions: protein: recombinant;recombinant; tags: tag (if any) removed by TEV;6xHis removed by TEV; chain copies: 2;2; label: 3'-FAM.
DNMT3BΔ214 D817G;DNMT3L MTase-like domain, sequence (Q9UJW3 179-379, chain 2 of 2, other chains not shown): as above
The target of series [6] is DNMT3BΔ570 WT;DNMT3L MTase-like domain (human;human, UniProt Q9UBC3;Q9UJW3 571-853;179-379, |). As to conditions: protein: recombinant;recombinant; tags: 6xHis-SUMO removed by TEV;6xHis removed by TEV; chain copies: 2;2; label: 3'-FAM.
DNMT3BΔ570 WT;DNMT3L MTase-like domain, sequence (Q9UJW3 179-379, stated change not applied, chain 2 of 2, other chains not shown): as the sequence (Q9UJW3 179-379, chain 2 of 2, other chains not shown) above
For series [7], the target named is DNMT3BΔ214 H814R;DNMT3L MTase-like domain (human;human, UniProt Q9UBC3;Q9UJW3 215-853;179-379, H814R|). As to conditions: protein: recombinant;recombinant; tags: tag (if any) removed by TEV;6xHis removed by TEV; chain copies: 2;2; label: 3'-FAM.
DNMT3BΔ214 H814R;DNMT3L MTase-like domain, sequence (Q9UJW3 179-379, chain 2 of 2, other chains not shown): as above

What is called Kd is the constant that tells how readily two partners part at equilibrium.

DNMT3BΔ214 WT;DNMT3L MTase-like domain, sequence (Q9UJW3 179-379, stated change not applied, chain 2 of 2, other chains not shown): as the sequence (Q9UJW3 179-379, chain 2 of 2, other chains not shown) above

B1: 49-bp FAM dsDNA (dsDNA)
DNA 1: AAAACGAAAAAAAAAAAAAAAAAAAAAAAAAAAAAAAAAAAAAAAAAAA
DNA 2: TTTTTTTTTTTTTTTTTTTTTTTTTTTTTTTTTTTTTTTTTTTCGTTTT
With B1, the Kd in series [1] amounted to 2.73 ± 0.26 µM; in series [2] it was 0.171 ± 0.008 µM; in series [3], 7.21 ± 0.78 µM; in series [4], 5.39 ± 0.58 µM; in series [5] it was 58 ± 6.15 µM; in series [6] it was 0.07 ± 0.007 µM. In addition, the Kd in series [7] came to 299 ± 55.8 µM.
